Experimental data: patent publication US20180087080A1

Legend:
FcγRIIIa receptor [1] = target: FcγRIIIa receptor (UniProt P08637); assay: SPR (Biacore), FcγRIIIa immobilised; sample with 5.1 % afucosylation
FcγRIIIa receptor [2] = target: FcγRIIIa receptor (UniProt P08637); assay: SPR (Biacore), FcγRIIIa immobilised; sample with 9.6 % afucosylation
FcγRIIIa receptor [3] = target: FcγRIIIa receptor (UniProt P08637); assay: SPR (Biacore), FcγRIIIa immobilised, run 1
FcγRIIIa receptor [4] = target: FcγRIIIa receptor (UniProt P08637); assay: SPR (Biacore), FcγRIIIa immobilised, run 2

UniProt P08637, sequence (P08637 17-208 limits assumed): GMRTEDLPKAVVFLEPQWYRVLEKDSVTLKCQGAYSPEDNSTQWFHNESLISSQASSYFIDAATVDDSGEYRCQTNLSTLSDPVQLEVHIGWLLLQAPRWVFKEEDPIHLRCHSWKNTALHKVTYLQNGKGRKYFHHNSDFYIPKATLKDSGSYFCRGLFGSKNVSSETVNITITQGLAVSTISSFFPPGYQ

“Itolizumab produced from Chinese Hamster Ovary (CHO) cell line (Bmab-600) (antibody)” was tested, and the Kd (FcγRIIIa receptor [1]) was 328 nM and the Kd (FcγRIIIa receptor [2]) was 306 nM.
“Itolizumab produced from mouse derived NS0 cell line (T1h) (antibody)” was tested, and the Kd (FcγRIIIa receptor [3]) was 372 nM and the Kd (FcγRIIIa receptor [4]) was 508 nM.
